According to article PMC8253215:

What was measured:
[1] = molecular target: rat luteinizing hormone/chorionic gonadotropin receptor (rLH/CGR) (rat) (UniProt P16235)
[2] = molecular target: rat follicle-stimulating hormone receptor (rFSHR) (rat) (UniProt P20395)
Chain of UniProt P20395 (P20395 18-692): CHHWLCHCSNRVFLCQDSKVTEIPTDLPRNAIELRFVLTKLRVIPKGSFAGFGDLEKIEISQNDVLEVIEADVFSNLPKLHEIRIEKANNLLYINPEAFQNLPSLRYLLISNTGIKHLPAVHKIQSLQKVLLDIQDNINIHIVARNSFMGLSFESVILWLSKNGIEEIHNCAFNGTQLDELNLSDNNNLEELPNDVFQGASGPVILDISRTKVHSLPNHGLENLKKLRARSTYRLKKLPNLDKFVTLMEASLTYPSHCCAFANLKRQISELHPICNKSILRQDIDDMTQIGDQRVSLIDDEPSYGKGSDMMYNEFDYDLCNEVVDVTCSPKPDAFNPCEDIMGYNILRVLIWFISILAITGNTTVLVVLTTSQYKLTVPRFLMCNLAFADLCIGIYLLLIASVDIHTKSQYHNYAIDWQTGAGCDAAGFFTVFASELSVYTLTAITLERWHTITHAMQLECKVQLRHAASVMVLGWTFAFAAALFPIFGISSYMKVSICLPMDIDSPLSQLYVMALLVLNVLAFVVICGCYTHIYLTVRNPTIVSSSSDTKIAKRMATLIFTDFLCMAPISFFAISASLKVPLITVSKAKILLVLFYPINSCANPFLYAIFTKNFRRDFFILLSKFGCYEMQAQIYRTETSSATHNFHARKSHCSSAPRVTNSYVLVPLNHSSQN

Chain of UniProt P16235 (P16235 27-700): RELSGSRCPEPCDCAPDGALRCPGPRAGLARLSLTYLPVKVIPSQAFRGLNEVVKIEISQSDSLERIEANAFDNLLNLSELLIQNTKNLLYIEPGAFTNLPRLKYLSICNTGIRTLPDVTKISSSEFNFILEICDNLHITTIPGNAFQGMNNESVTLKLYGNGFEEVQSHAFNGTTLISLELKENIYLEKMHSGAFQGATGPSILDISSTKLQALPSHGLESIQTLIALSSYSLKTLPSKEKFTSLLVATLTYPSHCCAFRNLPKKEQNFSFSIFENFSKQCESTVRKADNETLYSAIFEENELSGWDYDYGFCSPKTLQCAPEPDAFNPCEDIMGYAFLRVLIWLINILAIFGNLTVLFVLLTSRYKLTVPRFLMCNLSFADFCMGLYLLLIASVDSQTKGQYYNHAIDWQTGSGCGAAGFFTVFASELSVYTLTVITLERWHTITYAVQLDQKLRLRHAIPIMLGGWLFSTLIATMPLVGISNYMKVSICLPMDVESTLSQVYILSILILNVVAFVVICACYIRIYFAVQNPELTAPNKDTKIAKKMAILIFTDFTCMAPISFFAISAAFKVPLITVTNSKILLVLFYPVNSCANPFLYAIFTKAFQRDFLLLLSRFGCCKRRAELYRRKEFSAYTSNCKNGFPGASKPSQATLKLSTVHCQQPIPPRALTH

rec-eCGβF103P/α (from UniProt P08751 21-169; P01220 25-120) (ligand)
EC50 of cAMP response (HTRF) in CHO-K1 cells expressing rLH/CGR [1]: 0.018 ng/mL
EC50 of cAMP response (HTRF) in CHO-K1 cells expressing rFSHR [2]: 0.99 ng/mL

rec-eCGβF103P;R104K/α (from UniProt P08751 21-169; P01220 25-120) (ligand)
EC50 of cAMP response (HTRF) in CHO-K1 cells expressing rLH/CGR [1]: 0.037 ng/mL
EC50 of cAMP response (HTRF) in CHO-K1 cells expressing rFSHR [2]: 6.4 ng/mL

rec-eCGβR104K/α (from UniProt P08751 21-169; P01220 25-120) (ligand)
EC50 of cAMP response (HTRF) in CHO-K1 cells expressing rLH/CGR [1]: 0.033 ng/mL
EC50 of cAMP response (HTRF) in CHO-K1 cells expressing rFSHR [2]: 0.98 ng/mL

rec-eCGβV102G/α (from UniProt P08751 21-169; P01220 25-120) (ligand)
EC50 of cAMP response (HTRF) in CHO-K1 cells expressing rLH/CGR [1]: 0.015 ng/mL
EC50 of cAMP response (HTRF) in CHO-K1 cells expressing rFSHR [2]: 0.79 ng/mL

rec-eCGβV102G;F103P/α (from UniProt P08751 21-169; P01220 25-120) (ligand)
EC50 of cAMP response (HTRF) in CHO-K1 cells expressing rLH/CGR [1]: 0.016 ng/mL
EC50 of cAMP response (HTRF) in CHO-K1 cells expressing rFSHR [2]: 1.75 ng/mL

rec-eCGβV102G;F103P;R104K/α (from UniProt P08751 21-169; P01220 25-120) (ligand)
EC50 of cAMP response (HTRF) in CHO-K1 cells expressing rLH/CGR [1]: 0.013 ng/mL
EC50 of cAMP response (HTRF) in CHO-K1 cells expressing rFSHR [2]: 2.86 ng/mL

rec-eCGβV102G;R104K/α (from UniProt P08751 21-169; P01220 25-120) (ligand)
EC50 of cAMP response (HTRF) in CHO-K1 cells expressing rLH/CGR [1]: 0.038 ng/mL
EC50 of cAMP response (HTRF) in CHO-K1 cells expressing rFSHR [2]: 5.45 ng/mL

single-chain recombinant equine chorionic gonadotropin β/α, wild type (rec-eCGβ/α-wt) (from UniProt P08751 21-169; P01220 25-120) (ligand)
EC50 of cAMP response (HTRF) in CHO-K1 cells expressing rFSHR [2]: 0.16 ng/mL
